{"source": "the supplement of paper PMC11780869", "tested_on": "Bacillus subtilis", "assay": "cleaved RNA product abundance (RNA/gDNA barcode ratio) relative to median wild-type variant (ratio to wild type); higher = more accumulation of the downstream cleavage product", "conditions": "cleavage site: cggR-gapA (positions -7 to +36 mutated)", "outline": "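Reporter mRNAs (truncated aprE or tetM) carrying barcoded, mutagenized RNase Y cleavage-site windows were made from oligos with a 9% error rate and integrated into the B. subtilis chromosome. Cultures grew in LB at 37°C from OD600 0.0003 to 0.3. Cleaved RNA was gel-selected, reverse transcribed and barcode-sequenced alongside genomic DNA barcodes, with UMI collapsing. Cleaved product abundance is the RNA:gDNA barcode ratio per variant, scaled to the median wild-type variant.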", "key": {"[1]": {"conditions": "experiment (reporter, strain, medium): exp 4a: truncated aprE reporter, strain BJT201 with 2% xylose (RNase J1 expressed)"}, "[2]": {"conditions": "experiment (reporter, strain, medium): exp 2b: truncated aprE reporter, strain BJT200"}, "[3]": {"conditions": "experiment (reporter, strain, medium): exp 6: tetM reporter, strain 168"}}, "data": [{"sequence": "ACAGACGAAGGAGCCGCAAAGTAGTTATTAAGGGATGAATAATTCCTCAATATAAATATCTCTCACTTATTTAAA", "values": [{"measurement": "cleaved RNA product abundance", "setting": "[1]", "result": 0.75}]}, {"sequence": "ACAGACGAAGGAGCCGCAAAGTAGTTATTAAGGGATGAATAGTCCCTCAATATAAATATCTCTCACTTATTTAAA", "values": [{"measurement": "cleaved RNA product abundance", "setting": "[1]", "result": 0.883}]}, {"sequence": "ACAGACGAAGGAGCCGCAAAGTAGTTATTAAGGGATGAATATTCCCTCAATATAAATATCTCTCACTTATTTAAA", "values": [{"measurement": "cleaved RNA product abundance", "setting": "[2]", "result": 0.716}]}, {"sequence": "ACAGACGAAGGAGCCGCAAAGTAGTTATTAAGGGATGGATAATCCCTCAATATAAATATCTCTCACTTATTTAAA", "values": [{"measurement": "cleaved RNA product abundance", "setting": "[1]", "result": 0.537}]}, {"sequence": "ACAGACGAAGGAGCCGCAAAGTAGTTATTAAGGGATTAATAATCCCTCAATATAAATATCTCTCACTTATTTAAA", "values": [{"measurement": "cleaved RNA product abundance", "setting": "[1]", "result": 1.14}]}, {"sequence": "ACAGACGAAGGAGCCGCAAAGTAGTTATTAAGGGTTGAATAATCCCTCAATATAAATATCTCTCACTTATTTAAA", "values": [{"measurement": "cleaved RNA product abundance", "setting": "[1]", "result": 0.364}]}, {"sequence": "ACAGACGAAGGAGCCGCAAAGTAGTTATTAAGGTATGAATAATCCCTCAATATAAATATCTCTCACTTATTTAAA", "values": [{"measurement": "cleaved RNA product abundance", "setting": "[1]", "result": 0.0907}]}, {"sequence": "ACAGACGAAGGAGCCGCAAAGTAGTTATTAAGTGATGAATAATCCCTCAATATAAATATCTCTCACTTATTTAAA", "values": [{"measurement": "cleaved RNA product abundance", "setting": "[2]", "result": 0.106}, {"measurement": "cleaved RNA product abundance", "setting": "[1]", "result": 0.116}]}, {"sequence": "ACAGACGAAGGAGCCGCAAAGTAGTTATTAATGGATGAATAATCCCTCAATATAAATATCTCTCACTTATTTAAA", "values": [{"measurement": "cleaved RNA product abundance", "setting": "[2]", "result": 0.0916}, {"measurement": "cleaved RNA product abundance", "setting": "[1]", "result": 0.166}]}, {"sequence": "ACAGACGAAGGAGCCGCAAAGTAGTTATTATGGGATGAATAATCCCTCAATATAAATATCTCTCACTTATTTAAA", "values": [{"measurement": "cleaved RNA product abundance", "setting": "[1]", "result": 0.445}]}, {"sequence": "ACAGACGAAGGAGCCGCAAAGTAGTTATTTAGGGATGAATAATCCCTCAATATAAATATCTCTCACTTATTTAAA", "values": [{"measurement": "cleaved RNA product abundance", "setting": "[2]", "result": 0.726}, {"measurement": "cleaved RNA product abundance", "setting": "[1]", "result": 0.869}]}, {"sequence": "ACAGACGAAGGAGCCGCAAAGTAGTTCTTAAGGGATGAATAATCCCTCAATATAAATATCTCTCACTTATTTAAA", "values": [{"measurement": "cleaved RNA product abundance", "setting": "[1]", "result": 0.195}]}, {"sequence": "ACAGACGAAGGAGCCGCAAAGTAGTTTTTAAGGGATGAATAATCCCTCAATATAAATATCTCTCACTTATTTAAA", "values": [{"measurement": "cleaved RNA product abundance", "setting": "[1]", "result": 0.37}]}, {"sequence": "ACAGACGAAGGAGCCGCAAAGTATTTATTAAGGGATGAATAATCCCTCAATATAAATATCTCTCACTTATTTAAA", "values": [{"measurement": "cleaved RNA product abundance", "setting": "[2]", "result": 0.85}, {"measurement": "cleaved RNA product abundance", "setting": "[1]", "result": 0.594}]}, {"sequence": "ACAGACGAAGGAGCCGCAAAGTCGTTATTAAGGGATGAATAATCCCTCAATATAAATATCTCTCACTTATTTAAA", "values": [{"measurement": "cleaved RNA product abundance", "setting": "[1]", "result": 0.9}]}, {"sequence": "ACAGACGAAGGAGCCGCAAATAAATAATTAAGGGATGAATAATCCCTCAATATAAATATCTCTCACTTATTTAAA", "values": [{"measurement": "cleaved RNA product abundance", "setting": "[1]", "result": 0.336}]}, {"sequence": "ACAGACGAAGGAGCCGCAAATAAATTATTAAGGAATGAATAATCCCTCAATATAAATATCTCTCACTTATTTAAA", "values": [{"measurement": "cleaved RNA product abundance", "setting": "[1]", "result": 0.195}]}, {"sequence": "ACAGACGAAGGAGCCGCAAATAAATTATTAAGGGAAGAATAATCCCTCAATATAAATATCTCTCACTTATTTAAA", "values": [{"measurement": "cleaved RNA product abundance", "setting": "[1]", "result": 0.369}]}, {"sequence": "ACAGACGAAGGAGCCGCAAATAAATTATTAAGGGATGAATAATACCTCAATATAAATATCTCTCACTTATTTAAA", "values": [{"measurement": "cleaved RNA product abundance", "setting": "[1]", "result": 0.0858}]}, {"sequence": "ACAGACGAAGGAGCCGCAAATAAATTATTAAGGGATGAATAATCCCCCAATATAAATATCTCTCACTTATTTAAA", "values": [{"measurement": "cleaved RNA product abundance", "setting": "[1]", "result": 0.381}]}, {"sequence": "ACAGACGAAGGAGCCGCAAATAAATTATTAAGGGATGAATAATCCCTCAACATAAATATCTCTCACTTATTTAAA", "values": [{"measurement": "cleaved RNA product abundance", "setting": "[1]", "result": 0.396}]}, {"sequence": "ACAGACGAAGGAGCCGCAAATAAATTATTAAGGGATGAATAATCCCTCAATATAAATATCTCTCACTTATTTAAA", "values": [{"measurement": "cleaved RNA product abundance", "setting": "[2]", "result": 0.807}, {"measurement": "cleaved RNA product abundance", "setting": "[1]", "result": 0.801}]}, {"sequence": "ACAGACGAAGGAGCCGCAAATAAATTATTAAGGGATGAATATTCCCTCAATATAAATATCTCTCACTTATTTAAA", "values": [{"measurement": "cleaved RNA product abundance", "setting": "[1]", "result": 0.421}]}, {"sequence": "ACAGACGAAGGAGCCGCAAATAACTTATTAAGGGATGAATAATCCCTCAATATAAATATCTCTCACTTATTTAAA", "values": [{"measurement": "cleaved RNA product abundance", "setting": "[2]", "result": 0.465}, {"measurement": "cleaved RNA product abundance", "setting": "[1]", "result": 0.465}, {"measurement": "cleaved RNA product abundance", "setting": "[3]", "result": 0.719}]}, {"sequence": "ACAGACGAAGGAGCCGCAAATAAGATATTAAGGGATGAATAATCCCTCAATATAAATATCTCTCACTTATTTAAA", "values": [{"measurement": "cleaved RNA product abundance", "setting": "[1]", "result": 1.08}, {"measurement": "cleaved RNA product abundance", "setting": "[3]", "result": 0.738}]}, {"sequence": "ACAGACGAAGGAGCCGCAAATAAGCTATTAAGGGATGAATAATCCCTCAATATAAATATCTCTCACTTATTTAAA", "values": [{"measurement": "cleaved RNA product abundance", "setting": "[1]", "result": 0.149}]}, {"sequence": "ACAGACGAAGGAGCCGCAAATAAGTAATTAAGGGATGAATAATCCCTCAATATAAATATCTCTCACTTATTTAAA", "values": [{"measurement": "cleaved RNA product abundance", "setting": "[2]", "result": 0.246}, {"measurement": "cleaved RNA product abundance", "setting": "[1]", "result": 0.339}]}, {"sequence": "ACAGACGAAGGAGCCGCAAATAAGTCATTAAGGGATGAATAATCCCTCAATATAAATATCTCTCACTTATTTAAA", "values": [{"measurement": "cleaved RNA product abundance", "setting": "[1]", "result": 0.28}]}, {"sequence": "ACAGACGAAGGAGCCGCAAATAAGTTAATAAGGGATGAATAATCCCCCAATATAAATATCTCTCACTTATTTAAA", "values": [{"measurement": "cleaved RNA product abundance", "setting": "[2]", "result": 0.208}]}, {"sequence": "ACAGACGAAGGAGCCGCAAATAAGTTAATAAGGGATGAATAATCCCTCAATATAAATATCTCTCACTTATTTAAA", "values": [{"measurement": "cleaved RNA product abundance", "setting": "[2]", "result": 0.247}, {"measurement": "cleaved RNA product abundance", "setting": "[1]", "result": 0.343}]}, {"sequence": "ACAGACGAAGGAGCCGCAAATAAGTTAGTAAGGGATGAATAATCCCTCAATATAAATATCTCTCACTTATTTAAA", "values": [{"measurement": "cleaved RNA product abundance", "setting": "[2]", "result": 0.305}, {"measurement": "cleaved RNA product abundance", "setting": "[1]", "result": 0.549}]}, {"sequence": "ACAGACGAAGGAGCCGCAAATAAGTTATAAAAGGATGAATAATCCCTCAATATAAATATCTCTCACTTATTTAAA", "values": [{"measurement": "cleaved RNA product abundance", "setting": "[1]", "result": 0.211}]}]}
